Target: spike wt

B1: Tri-pdbody (designed binder)
LCB1 mini-binder coupled to a DNA handle that is hybridised to an arm of a 3-helix-bundle DNA nanostructure: DKEWILQKIYEIMRLLDELGHAEASMRVSDLIYEFMKKGDERLLEEAERLLEEVER
notes: also called 3-Arm; 3arm
- Kd: 0.132 nM

From US20250222126A1 (ARIZONA BOARD OF REGENTS ON BEHALF OF ARIZONA STATE …, published 2025)
